# Data taken from the DeepSol protein solubility set.
# Assay: soluble on expression in E. coli; label from the status in PepcDB or PDB records
row,Sequence,soluble on expression in E. coli
1,MKIAFLFRTSPHGTSISREGLDAILAATAFCEPNDIGIFFIDDGVLNLIDNQQPEIIQQKDFIRTFKLLDLYDVEQRFICTASLQKFKLDNRELILSCEKIDRSLLLEKLNQAGKLFTF,not soluble
2,MKIAIAGAGAMGSRFGLMLKQGGNDVLLIDGWQEHINAIKENGLKANYNGEEITVKVSIVNQNEVPTGEQFDLIILFTKAMQLEKMLQDVKPLIADHTEVLCLLNGIGHEDVIEKFVPMEKIFIGNTMWTAGLEGPGKAKLFGSGSVELQNLGIGQEESAKKLAETLSASGLNAKYSDNIHYSIYRKACVNGTMNGLCTILDVNMAGLGATKPAHDMVVTIVNEFAAVAAKENVNLDIPEVIEHVETCFDPTTIGMHFPSMHQDLIKNNRLTEIDYINGAISRKGKKYGVVTPYCDFLTQLVHSKEEILGAK,not soluble
3,MKIDILTLFPDMFTGVFGSSILKKAQEKEAVELRVVNFRDYTTSKHNSVDDYPYGGGAGMVLTPQPIFDAVEDLTKETERKPRVVLMCPQGERFTQKKAEELAEEEHLIFVCGHYEGYDERIREHLVTDEISIGDYVLTGGELASMVITDSVVRLLPGVLGNHASQVEDSFSTGLLEHPHYTRPADFRGMKVPDVLMSGNHKNIDEWRHKESLRRTYTRRPDLLEERELSKQEKKWLEQIKEGK,not soluble
4,MKIEDIYQFFENPPPTYLCQEVAICYILYVLLQGESYGTELIQQLETEHPTYRLSDTVLYSAIKFLEDNRAITGYWKKLEGRGRPRRMYQVSPEWQHQAEDLARLWQNYIYVRTN,soluble
5,MKIEENMELPVILVTSGVLLPGASLKIPIRSKLNIQTIEKYLTRSSNDNYVVIAYKVSTDKVYEVATIAYVEKLFGWTFNSTVHYSLDVIGLHRANIDKLSLPTCIVSKVVDLNEAISNQNAIEKLVTGAKIIASNSLTDKFSREIYSLIDEKEYGKLADLCVSQMKFLGFMQLLEFLGANGTDARVEMCIKWMNEKKDANTLKLKVPNSLEASFPVDGKKRKIPNVKNQVEQLEEKLNAIEFSDEVSDRVYSELHRLKSMNAQQSEYNILMNWLELVSSLPWNTSTIDDIELHKARTILTESHEAMDDVKERVLEHLAVCKMNNSVKGMILCFTGPPGIGKTSIAKAIAESMGRKFQRVSLGGIRDESDIRGHRRTYVAAMPGRIIEALKTCKTNNPVFLLDEVDKLYSGNQGSPSAALLELLDPEQNSTFHDHYLNIPFDVSKIMFIATANDIDRLEPALRDRLEIIEMSGYSLKEKVKICENHLLTRQLTKHCISHDYVKLERQAIVAMIEEYTMEAGVRQLERNVGAICRNVALRLAEALNSDPGADVLPVMELPIQISASNIHKILKNKHMKRVKIVEKMRPLPAGVCFGLSVTTIGGRVMPIEASKSKGTGKIVTTGHLGKVLKESILVAKGWLSANSERLGLGTLEDQDIHVHLPAGAVNKDGPSAGTGLACALVSLATNIPLRSDAAVTGEISLTGHVLPIGGVKEKVLAAQREGLRRVVLPKSNEEEYLKMDEDIRLEMDVVLAETIEDVIGAMMDKSPVLAKL,not soluble
6,MKIFENIEDVKAIRKKTGLNQIDFWGKVGVTQSGGSRYETGRKMPKPVRELLRLVHIECIDLAKVNKKDMEIAALLKKHHPDLYAELSKQTKSERKKQS,not soluble
7,MKIGDISIHYLNGGNTKMDGGAMFGVVPKPLWSKQYNANERNQINLPTHPILIQTAQYNLIIDAGIGNGKLSEKQLRNFGVDEESHIIADLANYNLTPKDIDYVLMTHMHFDHAAGLTDQAGHAIFENAIHVVQQDEWHEFIAPNIRSKSTYWDKNKGDYSNKLILFEKHFEPVPGIKMQHSGGHSFGHTIITIESQGDKAVHMGDIFPTTAHKNPLWVTAYDDYPMQSIREKERMIPYFIQQQYWFLFYHDENYFAVKYSDDGENIDAYILRETLVDNNLEHHHHHH,soluble
8,MKIGFIGAGKMAQALARGLINSGRITADNIIASSPKRDEVFLDQCKALGLNTTHDNAEVVQKSDVVFLAVKPVHVSKVASEIAPALSKEHLVVSIALGITIRNIESLLPTKSRVVRVMPNTPSVVRAGASAFAMGSACRDGDAETVEKLLSTVGFAVEVPEIHIDPVTGLSGSGPSYMFAVIEGLADGGVKVGLPRDLALKLAAYTLLGAAKMVLETGIHPAQLKDDVQSPAGSSVYGMHKLESGGLKGVLMDAVEAATNRSRATGDKALPRDFRNTEM,not soluble
9,MKIGIIGVGKMASAIIKGLKQTPHELIISGSSLERSKEIAEQLALPYAMSHQDLIDQVDLVILGIKPQLFETVLKPLHFKQPIISMAAGISLQRLATFVGQDLPLLRIMPNMNAQILQSSTALTGNALVSQELQARVRDLTDSFGSTFDISEKDFDTFTALAGSSPAYIYLFIEALAKAGVKNGIPKAKALEIVTQTVLASASNLKTSSQSPHDFIDAICSPGGTTIAGLMELERLGLTATVSSAIDKTIDKAKSL,soluble
10,MKIRIFVPQNKFMNREMLYNDLSGFLAMHFPCKVQKISINAGFTCPNRDGSVGYGGCTYCNNQTFNPAYCHTGKSVAQQLEEGKRFFVRKYPEMKYLAYFQAYTNTYGELEELKRKYEEALMVEDVVGLVIGTRPDCMPISLLDYLEDLGKRTFVLVEYGIESTDDETLRRINRGHTFAVSAEAVRKTAERGILVGGHIILGLPGEEREMLIRQAGVLSQLPLTTLKLHQLQLIKGTRMASEYVKEPEAFHLYTADEYVDLVIDYIEHLRPDIVLERFVSQSPKELLIAPDWGLKNYEFTDKVKKRMREKDAWQGKYYKY,not soluble
11,MKITNPVLKGFNPDPSICRAGEDYYIAVSTFEWFPGVQIHHSKDLVNWHLVAHPLQRVSQLDMKGNPNSGGVWAPCLSYSDGKFWLIYTDVKVVDGAWKDCHNYLVTCETINGDWSEPIKLNSSGFDASLFHDTDGKKYLLNMLWDHRIDRHSFGGIVIQEYSDKEQKLIGKPKVIFEGTDRKLTEAPHLYHIGNYYYLLTAEGGTRYEHAATIARSANIEGPYEVHPDNPILTSWHDPGNPLQKCGHASIVQTHTDEWYLAHLTGRPIHPDDDSIFQQRGYCPLGRETAIQKLYWKDEWPYVVGGKEGSLEVDAPSIPETIFEATYPEVDEFEDSTLNINFQTLRIPFTNELGSLTQAPNHLRLFGHESLTSTFTQAFVARRWQSLHFEAETAVEFYPENFQQAAGLVNYYNTENWTALQVTHDEELGRILELTICDNFSFSQPLNNKIVIPREVKYVYLRVNIEKDKYYYFYSFNKEDWHKIDIALESKKLSDDYIRGGGFFTGAFVGMQCQDTGGNHIPADFRYFRYKEK,soluble
12,MKITREELAVQVDVAQWSWLRAHLERGGLIVVNRGLDLVEVGVSIASDDTAVVGDWIQTGLLAKPSAEQISAWDANEEISFSALIISPYVLIQEQKQ,not soluble
13,MKIVCSKEQLMEGINVVQKAVPTKATLTILEGILLEAYDNFKMTGNDLELGIECLIDADILEKGSIVLNSKMFGDIVRRLPDSEVLIEVKENNTVIIECDNSHFELRGMPSDSFPSLPSIEKENMIKVSQKAIRDMIRQTLFAVSTEGTRPILTGSLIECAGNEITFVSIDGFRMALRKNFNNEGFSEFSVVVPAKTLSEIGKILQPVDEDIYIYSSQNQILFEIGNCKVVSRLLEGEYLNYKSIIPPEYETSVRLRTEDLLSSLERASLITSDEKKYPVKFNIIDDKIIITSNTEIGAVREEIRVEVNGSNMEVGFNPRYFIEALRVIDDELVDIYFNSSVGPCTIRPLEGDSFAYMILPVRINK,soluble
14,MKIVIAPDSFKESLSADKCCQAIKAGFSTVFPDARYVCLPIADGGEGTVDAMVAATGGKRVSVDVSGPMGEKVNGFYGLTGDGKTAIIEMAAASGLMLVAPEARNPLLASSFGTGELIRHALDAGIRHIILGIGGSATVDGGMGVAQALGVRFLDAQGTPLGAGGGNLSRLASIDLQGCDPRISECRIEVACDVDNPLVGPRGAAAVFGPQKGATPEMVETLENGLRNYARVLHALTGRDMSQIPGGGAAGGMGIAAIVFLEAEMKPGIEIVMQAVKLEEAVKEASLVITGEGRIDSQTAGGKAPIGVASVAKRHHVPVIGIAGVLGDGVEVVHRHGIDAVFSILPRLAPLPEVLANGEQNLYHSACNIARVIKLGQDIGTR,not soluble
15,MKIVIAPDSFKESLTAQQVAEAIKRGFQQSIADVECLLCPVGDGGEGTVDAIRHSLDLEEKCLQVTGSFGQKEVMRYFQKEQLALFEVADLVGLGKIPLEKRNPLQIQTRGIGELIRHLISQEIKEIYIGVGGTASNDGGIGIAAGLGYQFYDEDGNALPACGQSLLNLASVSTENRYKIPEDVHIRILADVVSPLCGHQGATYTFGKQKGLDSTMFEVVDQAIQDFYEKVSPATLKLKGAGAGGGIAGGLCAFAQASIVSGIDTCLDLIDFDKKVSDVDLVIVGEGRLDRQSLAGKAPIGVAKRTPVGVPVVAICGSLVEDLPSLPFENIQAAFSILEKSEPLEDSLKNASLYLEHTASNIGHLLNMPKI,soluble
16,MKIVIDLMGADHGVLPIIEGVSRALENKSFSVVLVGDKDKATPFISKELASKVEMIHTQDYIKMEEAATEAIKRKESSIYLGMDILKNGADALISAGHSGATMGLATLRLGRIKGVERPAICTLMPSVGKRPSVLLDAGANTDCKPEYLIDFALMGYEYAKSVLHYDSPKVGLLSNGEEDIKGNTLVKETHKMLKAYDFFYGNVEGSDIFKGVVDVVVCDGFMGNVVLKTTEGVASAIGSIFKDEIKSSFKSKMGALMLKNAFGILKQKTDYAEYGGAPLLGVNKSVIISHGKSNARAVECAIYQAISAVESQVCLRITQAFESLKSQSFESQSDQQDA,not soluble
17,MKIYLMRHTSVLFNGNEHCYGFTDVDVRDTFEEEAAAACARLKGLDPEAVFTSPLQRAAKLAAFCGYPDAIRDDRLKEMNFGDWEGKPWEEILDTTDIEAFFRRYIDEPVSGGESQREQFERVRDFILEKKAAGYRSILIFCHGGVINCARTLVGQCTLESAFASLPPFGSLTELIL,not soluble
18,MKKALLVVSFGTSYHDTCEKNIVACERDLAASCPDRDLFRAFTSGMIIRKLRQRDGIDIDTPLQALQKLAAQGYQDVAIQSLHIINGDEYEKIVREVQLLRPLFTRLTLGVPLLSSHNDYVQLMQALRQQMPSLRQTEKVVFMGHGASHHAFAAYACLDHMMTAQRFPARVGAVESYPEVDILIDSLRDEGVTGVHLMPLMLVAGDHAINDMASDDGDSWKMRFNAAGIPATPWLSGLGENPAIRAMFVAHLHQALNMAVEEAA,soluble
19,MKKDIGDHLISKLDLQDIAKVLSDELSGSELNTVLLDIFNKRVQQETPSSLLSKYEGNKLVKPALLEDVLEYKEKELRCYKLIAGRGFEPIELSPVAQFGTNSVIATVDQKKVLTSLRNTEVQADPTNTIALHYASLKKKGELDNKTYNYSNISRVIRTQVFNNPNFTPHFTVLALISCGRDTGSFNFEKEELLKHLTTSYEICKSYGVEKIYYEIIPCKGYDSQSPLIMESISYVRKKNSNLEVLVIAPEHDNNYYHGFRIKQQIVIGGNTIEIADGGLLDWTQQLLTNKKERMMTFGLGIQVLYHLTK,soluble
20,MKKDWQEQLPLNHIRDIKTVSGGDVNEAFKVTTEDDVYFLLVQRNRDKSFYAAEIAGLNAFEEAGVTAPHVIDSGEINGDAFLILSYLDEGTTGSQRELGQLVAKMHSQQQSDGKFGFDLPHEGGDISFDNTWSDSWIEIFVERRMDHLRDELMRKGLWNDEDNKVYEQVRTVMVNELENHNSNPSLLHGDLWGGNYMFLTDGSPALFDPAPFYGDREFDLGITTVFGGFTREFYDEYEKHYPLGKGSRKRLEFYRLYLFMVHLLKFGGMYASSVNRSMDEILALEHHHHHH,soluble
21,MKKEIIVYTISDSLGETSQKLLAAASAQYPDISFLNRYNFSFVTTEEELLEILKDALKDKALVVSTLVSKQLITAAKEFSERTGLLYLDLMAPFFELIQAKAGVDPIEEPGRRHQLDRAYFDKISAIEFAVKYDDGKNPQGFLDSDILLLGVSRTSKTPVSMYLANQGYRVSNLPLIPEVPLPPILEEMDPQKMIGLVCSPETLGQIRSSRLASLGLGNETSYTNVERIEQELAYAEEIFAKYGIPVIDVTAKSVEETAFLIKEKLDERNLEHHHHHH,soluble
